This passage reports IC50 and Kd results from patent US20200331999 (published 2020).

The target of assay [1] is T1, human TIGIT-Fc (human).
T1 chain: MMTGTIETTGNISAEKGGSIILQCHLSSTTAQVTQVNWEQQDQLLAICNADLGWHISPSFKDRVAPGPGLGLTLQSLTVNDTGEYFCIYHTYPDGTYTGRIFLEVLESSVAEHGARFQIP
The assay is described as follows: competition, FACS, blocking binding to PVR on HEK293.

Assay [2] has as its target T2, human TIGIT ECD (human).
T2 chain: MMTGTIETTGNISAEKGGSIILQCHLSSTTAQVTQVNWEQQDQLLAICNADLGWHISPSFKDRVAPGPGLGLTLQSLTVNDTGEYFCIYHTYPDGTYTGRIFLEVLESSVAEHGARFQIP
The assay is described as follows: SPR, pH 6.0. Background: SPR reads the build-up and loss of mass on a sensor chip optically.

The target in assay [3] is T1, human TIGIT-Fc. The assay is described as follows: competition, FACS, blocking binding to PVR-L2 on HEK293.
Assay [4] addresses T2, human TIGIT ECD. The assay is described as follows: SPR, pH 7.4.

B1: hu1217-2-2/IgG1 (antibody, V domains shown)
VH: EVQLVESGGGLVQPGGSLRLSCAASGFTFSDYYMYWVRQAPGKGLEWVAYITKGGGSTYYPDSVKGRFTISRDNAKNTLYLQMNSLRAEDTAVYYCARQTNYDFTMDYWGQGTLVTVSS
VL: EIVMTQSPATLSVSPGERATLSCKASQDVGTSVAWYQQKPGQAPRLLIYWASARHTGIPARFSGSGSGTEFTLTISSLQSEDFAVYYCQQYSSYPLTFGGGTKVEIK
modifications: wild-type human IgG1 Fc
For the molecule B1, the IC50 with human TIGIT-Fc [1] stood at 0.64 µg/mL; with human TIGIT-Fc [3], 0.25 µg/mL. The results for the Kd with human TIGIT ECD [2] and in the assay with human TIGIT ECD [4] were 0.0299 nM and 0.219 nM, respectively.

The term IC50 denotes the midpoint of a concentration-inhibition curve. A higher IC50 goes with weaker potency in that assay. A word on the Kd: it is a measure of binding affinity in units of concentration. A low value points to a tighter complex.
